Results on two molecules are retold here after paper PMC10897342, “An octameric PqiC toroid stabilises the outer-membrane interaction of the PqiABC transport system” (EMBO Reports, 2024).

Series [1] addresses T1, PqiB (residues 1–546) with a C-terminal hexa-histidine tag, of the PqiAB construct (E. coli, UniProt P43671 1-546).
T1 construct: PqiB, periplasm-spanning MCE family protein of E. coli, residues 1–546; Always present together with PqiA in the experiments; also called hexameric PqiB; source: E. coli C43 (DE3), co-expressed with PqiA, purified (Ni-NTA, SEC) in DDM, reconstituted into DMPC proteoliposomes; not shown: His6, C-terminal, kept
T1 sequence (looked up): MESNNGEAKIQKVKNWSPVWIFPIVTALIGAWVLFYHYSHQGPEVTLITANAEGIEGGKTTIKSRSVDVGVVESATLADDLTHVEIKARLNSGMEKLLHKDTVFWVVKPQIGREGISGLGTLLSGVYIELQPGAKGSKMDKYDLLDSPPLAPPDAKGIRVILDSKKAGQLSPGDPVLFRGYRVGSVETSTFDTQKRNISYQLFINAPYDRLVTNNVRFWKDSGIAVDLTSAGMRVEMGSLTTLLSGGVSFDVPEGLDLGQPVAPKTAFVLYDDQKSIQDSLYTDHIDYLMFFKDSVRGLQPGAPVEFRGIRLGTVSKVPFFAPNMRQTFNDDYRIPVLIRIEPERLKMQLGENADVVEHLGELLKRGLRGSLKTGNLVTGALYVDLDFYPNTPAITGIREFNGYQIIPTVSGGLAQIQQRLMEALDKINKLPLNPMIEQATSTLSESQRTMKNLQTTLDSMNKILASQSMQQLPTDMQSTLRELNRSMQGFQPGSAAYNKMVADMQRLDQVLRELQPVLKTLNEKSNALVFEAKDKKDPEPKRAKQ
The experiment in a line: QCM-D; PqiC-Strep in a supported DMPC bilayer on a silicon sensor; PqiAB-DMPC proteoliposomes flowed over, then buffer; 25 °C, 0.1 mL/min; 20 mM Bis-Tris Propane, 150 mM NaCl, pH 8.5. Particulars: both partners purified.

For series [2], the target named is T2, PqiAB subcomplex (PqiA residues 1–417 and PqiB residues 1–546, C-terminal hexa-histidine tag) (E. coli, UniProt P0AFL9 1-417; P43671 1-546).
T2 construct: PqiA, integral inner membrane protein of E. coli, residues 1–417; PqiB, periplasm-spanning MCE family protein of E. coli, residues 1–546; also called purified PqiAB subcomplex; PqiAB-proteoliposomes; copies: + 6
T2 sequence (looked up) 1: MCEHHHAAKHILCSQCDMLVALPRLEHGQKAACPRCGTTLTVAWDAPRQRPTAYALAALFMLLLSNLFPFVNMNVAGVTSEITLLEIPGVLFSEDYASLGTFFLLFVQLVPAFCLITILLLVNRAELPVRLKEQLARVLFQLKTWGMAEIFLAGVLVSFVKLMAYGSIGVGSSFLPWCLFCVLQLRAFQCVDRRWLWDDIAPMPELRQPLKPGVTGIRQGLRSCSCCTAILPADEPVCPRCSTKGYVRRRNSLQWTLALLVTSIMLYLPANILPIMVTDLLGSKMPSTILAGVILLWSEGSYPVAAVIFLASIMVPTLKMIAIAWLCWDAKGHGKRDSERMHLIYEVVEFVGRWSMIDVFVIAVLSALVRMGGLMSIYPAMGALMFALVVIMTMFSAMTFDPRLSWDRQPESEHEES
T2 sequence (looked up) 2: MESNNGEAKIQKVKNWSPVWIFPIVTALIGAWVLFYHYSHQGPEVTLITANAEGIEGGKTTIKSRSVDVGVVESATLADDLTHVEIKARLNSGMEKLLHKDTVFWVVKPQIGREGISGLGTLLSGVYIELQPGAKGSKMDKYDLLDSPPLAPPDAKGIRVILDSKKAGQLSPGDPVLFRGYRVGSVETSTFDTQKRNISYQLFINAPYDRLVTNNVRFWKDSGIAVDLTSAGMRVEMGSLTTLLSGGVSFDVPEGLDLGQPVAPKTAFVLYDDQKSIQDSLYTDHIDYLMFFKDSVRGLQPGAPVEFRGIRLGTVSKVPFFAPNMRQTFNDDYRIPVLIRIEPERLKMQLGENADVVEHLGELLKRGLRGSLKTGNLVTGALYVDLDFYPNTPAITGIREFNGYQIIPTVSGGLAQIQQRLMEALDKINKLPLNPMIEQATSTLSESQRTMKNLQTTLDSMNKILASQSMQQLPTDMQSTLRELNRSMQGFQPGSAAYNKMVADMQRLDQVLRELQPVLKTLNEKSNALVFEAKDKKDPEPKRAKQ
Put plainly: neutron reflectometry; PqiC in a supported dDMPC bilayer on silicon; PqiAB-DMPC proteoliposomes (0.01 mg/mL PqiAB) incubated 30 minutes, washed; 20 mM BTP, 150 mM NaCl, pH 8.5; 25 °C; isotopic contrast variation. The conditions noted are these: both partners purified.

Series [3] concerns the molecule itself. The experiment in a line: crystal structure; PqiC-His in DDM; 3.2 Å; two chains in the asymmetric unit, octameric toroid by the symmetry of the unit cell; interface analysed with PDBePISA.

B1: PqiC-Strep, E. coli PqiC residues 1–186 with a C-terminal StrepTag II (natural protein, UniProt P0AB10 16-186, looked up)
chain: CSSGEINKNYYQLPVVQSGTQSTASQGNRLLWVEQVTVPDYLAGNGVVYQTSDVKYVIANNNLWASPLDQQLRNTLVANLSTQLPGWVVASQPLGSAQDTLNVTVTEFNGRYDGKVIVSGEWLLNHQGQLIKRPFRLEGVQTQDGYDEMVKVLAGVWSQEAASIAQEIKRL
modifications: lipidation of Cys16 (the paper: 'a native PqiC construct was used')
notes: signal peptide in the construct; Stood in a supported DMPC bilayer on a silicon surface; also called PqiC (in QCM-D and NR); surface-tethered PqiC octamer
Consider B1, for which the binding result in series [1] and in series [2] was “binds” throughout.

B2: E. coli PqiC (residues 1–187) with a C-terminal hexa-histidine tag (natural protein, UniProt P0AB10 16-187, looked up)
chain: CSSGEINKNYYQLPVVQSGTQSTASQGNRLLWVEQVTVPDYLAGNGVVYQTSDVKYVIANNNLWASPLDQQLRNTLVANLSTQLPGWVVASQPLGSAQDTLNVTVTEFNGRYDGKVIVSGEWLLNHQGQLIKRPFRLEGVQTQDGYDEMVKVLAGVWSQEAASIAQEIKRLP
modifications: N-terminally acylated Cysteine (C16); the construct is 'presumably processed and lipidated in the same manner as the native lipoprotein'
notes: signal peptide in the construct; the N-terminal signal peptide is called residues 1–16 in the methods, while the mature lipoprotein is said to begin at the acylated C16; Octamer by the crystal's symmetry (two chains in the asymmetric unit); also called native PqiC; full length PqiC; source: E. coli C43 (DE3), membrane fraction solubilised in DDM, purified (Ni-NTA, SEC)
Usually stoichiometry N stands for a count of units in the complex or per binding partner. Regarding B2, in series [3], the “stoichiometry N” value turned out to be 8.
